Measurements taken from the DeepSol protein solubility set.

assay: soluble on expression in E. coli; label from the status in PepcDB or PDB records

Sequence	soluble on expression in E. coli
MKRQRVVVKIGSSSLTDPKGGLCHDKLFDHVEAIAYLKQLGHDVILITSGAVAAGFGPLGYPARPTTIAGKQAAAAVGQSLLMQAYSSAFAQFGFTAAQLLLTRSDFYSRERFRNLFATITTLLENGAVPIINENDSVSIEELTFGDNDMLSALVAGFLHADALILLTDINGLYDANPKTNPQAKKYAFLPEITDEMIEAAGGIGSAVGTGGMRSKLLAARKALSFGVSVFIGAGSGKEKLADILAGKGDGTYIGAPFPKQMQMRKQWIAYHAPVAGTVTVDSGAEEALLMRGKSLLPAGVTAVSGDFHAMDVVDVVNEKGITIGRGQVYYAAADLEKVKGLPSEEARQYSYLHRPEVIHRDNWVTLRKESVSK	not soluble
MAHHHHHHMQKPIMIVGTSAPRRREIAQRHFGATYDLVYLSPDIDEKQIRDSDPFTLTRAIAQAKMDELRVKVARDAALQDRVAKRPGSVAITFDQVVDYHGEIREKPASEQQAAAFIHAYSNDNLGTVMTTVLYDFGTGKQVSMPNTTLTFYGEIPDETVARVVERGACLRTAGGFVVEDVDMKRCEIKIDPGTEEEVCGFCEKSVRALLEGVQRPWVQSDHCSDGKR	not soluble
MNTQKRQQIRTEIRKIRANLTALQQHQAEQSVTQHALNLIEQRQAKNIALYFSFDGEISTKALIQSLWMQNKNVYLPVLHPFTKHYLLFLRYLPDTPMKQNQFGIWEPKLNVQNVLPLNELDILFTPLVAFDKKGNRLGMGGGFYDRTLQNWQNKSFIPVGLAYQCQQVENLPTEHWDVPLFDILVGLEHHHHHH	not soluble
ITASGENRNAINDLLGAMCYDEETARTYQGYVAELDNPHTPETEEYGISSFVFKGDRPFDRQRLIAALRSTRGIVRSKGHCWISDRIDMVQVWHQAGPDLRIAPAGYWQSAGITPSNEIVVIGVNFDHAQAQQLLNDAMLSDSEVQQLLSTADAAKS	not soluble
GPQMLSANERLKNNFNILYNQIRQYPAYYFKVASNVPTYSDICQSFSVMYQGFQIVNHSGDVFIHACRENPQSKGDFVGDKFHISIAREQVPLAFQILSGLLFSEDSPIDKWKITDMNRVSQQSRVGIGAQFTLYVKSDQECSQYSALLLHKIRQFIMCLESNLLRSKIAPGEYPASDVRPEDWKYVSYRNELRSDRDGSERQEQMLREEPFYRLMIE	soluble
MGSDKIHHHHHHMCTVQSNITSHVKKLEEELGVILLNRHNPVTLTNAGHQLHSYAVQMIALHNKAKTIFREGDIDPNETIRLGSMETTAAIRLPQLLNECMQQHPNLPLELQTHPTGYLLNAVQQGEVDCAFVASKYVIPELYSFPVWQEQLVLVCPKQQIDFPDIATLAKTRFIAFRQGCSYRHAIELFLNDHSVPPSQIMEMGSLDGIVSCVELGVGFALLPKSYLNKVADKVSLSCFEINTESAHFTTYLVAQPPETWGSNLKQFICFIEQQFIQKCA	not soluble
MSLINKEILPFTAQAFDPKKDQFKEVTQEDLKGSWSVVCFYPADFSFVCPTELEDLQNQYEELQKLGVNVFSVSTDTHFVHKAWHDHSDAISKITYTMIGDPSQTITRNFDVLDEATGLAQRGTFIIDPDGVVQASEINADGIGRDASTLAHKIKAAQYVRKNPGEVCPAKWEEGAKTLQPGLDLVGKI	not soluble
RTMGFYVAKGNPKNITGWEDFRRDDLTMVNRERGCGTRILLDEHLRLLNIDGNKINGYSRESLSHLAIASIISRNGADIGIGNEKTGLQVANIDFIPIQRERYDLVIRKDDIEKPPFKAIIDILQSETFKSELMGIGGYDLTQTG	not soluble
MKIPSVFMLEQQKASLQLHVKQLANEAIQKSAPSAWFEVLYAEAQGDTTQIPWAKLTPHPYLQEWLTNHQPFPSGQKALVIGCGLGDDAEALAKLGFAVTAFDISPTAIAWCGQRFPNSNVNYIVADLLAIPPQWHLAFDFVFECRNIQALPLNIRAEVITSIASVVAPDGTLLLINRVRLEHHHHHH	not soluble
MGSDKIHHHHHHMKTTSVPVAYMPLIDAAPLIVGQEMGFAEAEGISLELIAAPSWSSVRDMLAFGRVDLAHLLSVVPVAMALRLGGVTNPMSAVSVLSVNGNVIGVSRALEARLRAAGYPFDFADAAAAGAALAKVTQGGLTIGVPFPFSMHVELLQVWRSSTPLASVPLDIRTVPPPMMAQALASGEIDAFCVGEPWGSVSVENGAGALLLPGRAIWSFAPEKVLATRADWAETEPHLLGRVMRTVWRAGKWLADPSSRTAAAELLSRPRWLDVPAELVDRALTGELAISPDGEVRDVPGFLEFHHGAANFPWRSQGKWIATQLATRTGMDPSAAARQAADVFRSDLYRAALDGTGADMPGASEKLEGSLIHPTAVASTRGQMILDTDVFFDGRIFDPTT	not soluble
MPNLPQKAQQRQPQEHKSRHKATDDTEAPKQQQQQQQQQQSFDVATNANGSSLPASRVKNPEEPGGKSPLVPMRQHHSKVTRPPPPPTLFLENSLLQRQFANPISYLGGPRLQPRSNRTSIDSILSLDLEHHHHHH	not soluble
MDVTRQIELAHRYMKDFHKSDYSGHDVAHVERVTSLAQTISKCEQQGEYLIITLSALLHDVIDDKLTNKANALDRLKTFLKNIRVSSDQQQKIIYIIQHLSYRNGQNNHVDLPIEGQIVRDADRLDAIGAIGIARAFQFSGHFNEPMWTESPHSDIPNIETITNLEPSAIRHFYDKLLKLKDLMHTETGRKLARERHAFMEQFLNQFYKEWHILEHHHHHH	soluble
MGSDKIHHHHHHMDLPDSASRVFCGRILSMVNTDDVNAIILAQKNMLDRFEKTNEMLLNFNNLSSARLQQMSERFLHHTRTLVEMKRDLDSIFRRIRTLKGKLARQHPEAFSHIPEASFLEEEDEDPIPPSTTTTIATSEQSTGSCDTSPDTVSPSLSPGFEDLSHVQAGSPAINGRSQTDDEEMTGE	not soluble
MGSDKIHHHHHHMKSNTTMSKTERLFHLLQILRRYRYPLSGQFLANELGVSTRTIYRDIAALQAQGADIEGEPGLGYVLKPGFMLPPLMFNEEEIEALVLGSRWVAKKTDTHLQQAAHNALAKIASVLPADLRQQLELSSLLIGPGEVISGEDESLALVRKAIRKELKLFIQYHDLKGNVSTRTIWPIGLGYFDQVRVLIAWCELKKDFRHFRADRIVDVENLGVCYAKRRSVLLHDWRKQNNIPG	not soluble
RADEQAFLVALYKYMKERKTPIERIPYLGFKQINLWTMFQAAQKLGGYETITARRQWKHIYDELGGNPGSTSAATCTRRHYERLILPYERFIKGEEDKPLPPIKPRK	soluble
MALNLKQRLEQKFEEEIRFFKGMVSQPKKVGAIVPTSSITAKKMASVINPHSGLPVLELGPGTGVITKAILARGIKPESLTAIEYSTDFYNQLLRSYPGVNFVNGDAFDLDATLGEHKGQMFDSVISAVPMLNFPMAARIKLLDELLKRVPHGRPVVQISYGPISPIVAQPHLYHIRHFDFIVRNIPPAQLWTYTRALEHHHHHH	not soluble
SDSSAVITQISKEEARGPLRGKGDQKSAASQKPRSRGILHSLFCCVCRDDGEALPAHSGAPLLVEENGAIPKQTPVQYLLPEAKAQDSDKICVVIDLDETLVHSSFKPVNNADFIIPVEIDGVVHQVYVLKRPHVDEFLQRMGELFECVLFTASLAKYADPVADLLDKWGAFRARLFRESCVFHRGNYVKDLSRLGRDLRRVLILDNSPASYVFHPDNAVPVASWFDNMSDTELHDLLPFFEQLSRVDDVYSVLRQPRPGS	soluble
MGHHHHHHSHMDNAVDRHVFYISDGTAITAEVLGHAVMSQFPVTISSITLPFVENESRARAVKDQIDAIYHQTGVRPLVFYSIVLPEIRAIILQSEGFCQDIVQALVAPLQQEMKLDPTPIAHRTHGLNPNNLNKYDARIAAIDYTLAHDDGISLRNLDQAQVILLGVSRCGKTPTSLYLAMQFGIRAANYPFIADDMDNLVLPASLKPLQHKLFGLTIDPERLAAIREERRENSRYASLRQCRMEVAEVEALYRKNQIPWINSTNYSVEEIATKILDIMGLSRRMY	not soluble
MAVSTVTGAAGIGLATLAADGSVLDTWFPAPELTESGTSATSRLAVSDVPVELAALIGRDDDRRTETIAVRTVIGSLDDVAADPYDAYLRLHLLSHRLVAPHGLNAGGLFGVLTNVVWTNHGPCAIDGFEAVRARLRRRGPVTVYGVDKFPRMVDYVVPTGVRIADADRVRLGAHLAPGTTVMHEGFVNYNAGTLGASMVEGRISAGVVVGDGSDVGGGASIMGTLSGGGTHVISIGKRCLLGANSGLGISLGDDCVVEAGLYVTAGTRVTMPDSNSVKARELSGSSNLLFRRNSVSGAVEVLARDGQGIALNEDLHANGVPRGLEHHHHHH	soluble
MLSRPSGTVAKTEFQLRRNVLPALKRFVSAAAKSAGVQEKTTVLENGLRVSSVELNGATSSIVLAFRAGSRYQPANKQGLTHLIRNSVGRDAPNFPGLALVWNTAQNGGNLTAVSNRDVLAIEVNVVRDQSAVVLSLLGQLGNNAFKPWDVEDVKHDTLPADATYLTGTTIAFEQLHQAAFRNGGLGLSNYSVNNVSAKDLSAFAKERLVAGEAVLVGVNVDHDTLVQAGSTQFPLAQNQPAKATPAKYFGGEARKDGRGNRSYVAIAGEGSAITSVKDVAVQAVVAQILLNAAQKVTSEAISVNVNYQDSGLVGVQFAACNTQITQVTKSIASAIKSAKADGLDNAKNTAAVQVLSDAQHASEVALEKATQVLAGVEVSPREFADAIRAVTAQDVTQALSRVNGKLSLAAYGSTSLVPYLDEL	not soluble
KDGDFLDMDWHGPNDADAPLVLVLHGLTGSSNSPYVAGLQKAMAAKGWASVALNWRGCSGEPNLLSRSYHSGASEDLAEVIAHLRLLRPLAALYAVGYSLGGNVLLKYLGESGKHSELLGAVAVSVPFRLDECANRIGQGFSKVYQRHFMREMLTYIRDKQQRFQHEGLTEGLAELSALGSLENMRTFWDFDGRVTAPLHGFVDATDYYRRASSRYYLGQIETPTLIIQSRDDPFVFPHSLPEPGELSACTEFELHAKGGHVGFVDGSLRNPTYYLERRIPSWL	not soluble
METASITEWTFVQEVPIPEDVANLMVPGEDAVVAFKTFRDSAIFTTKRLIVRDSQGLRGKKVEVYSLPYSSVNMWSTENAGTFDFNAEVELWTRAGKIKIKIGRDLDVRRLDMLLAQCILG	not soluble
MGHHHHHHSHKVYWGVAWDRSDVAVKIYLSFTSDFRKSIRKYIVGDPRFEDIPAGNIRRLIYEWARKEYRNLRRMRESGVRVPRPVAVEANIIVMEFLGEKGYRAPTLAEAVEELDRGEAEAIAAEVLRQAEAIVCRARLVHADLSEYNILVWRGEPWIIDVSQAVPHSHPNAEEFLERDVENLHRFLTGKMGFEFDFDAYLSRLKS	not soluble
MGSDKIHHHHHHMKLITFVCAAFLCLPSLAQEKFPDGTPVSDWFKDSKIVDINTLGKKYILTDYGVINDSTLLQTEKIQSAIDAAAQNGGGVIVIPKGTYLSGALFFKPKTHLHLEEGAVLKGSDDISNFPIIDTRMEGQSLKYFAALVNADKVDGFTLSGKGTIDGNGLRYWKSFWLRRKVNPQCTNMDELRPRLVHISHSNNVQLSGVRLINSPFWTTHLYKCNHIKLLNLYIFSPEKPVKAPSTDAIDIDVCSNVLVKNCYMSVNDDAIALKGGKGPWADQDPNNGGNFNIIIEDCTYGFCHGALTCGSESIHNRNIILRRIHITNANRLLWLKMRPDTPQQYEYILVEDITGDADHFLYIKPWTQFFDLKDRKDIPVSYSNHVTMRNIDFKCDNFFSVEKSDQYQLTNFTFENLNIKAKNGECDKEMIDNFIWKKVSINNIK	not soluble
